Drawing on patent publication EP3007726B1, this text covers reduction in levels of the Free Tau (of IPN002) signal in CSF for 1 molecule.

This test has as its target tau of P301L tau transgenic mice (4R2N human tau mutated at P301L) (human) (UniProt P10636). Briefly: free-tau ELISA on CSF of P301L mice treated with IPN002, against control IgG (Figure 33).
Chain of UniProt P10636 (P10636 other isoform, or with tags, fused parts or gaps P301L P301L P301L P301L limits assumed): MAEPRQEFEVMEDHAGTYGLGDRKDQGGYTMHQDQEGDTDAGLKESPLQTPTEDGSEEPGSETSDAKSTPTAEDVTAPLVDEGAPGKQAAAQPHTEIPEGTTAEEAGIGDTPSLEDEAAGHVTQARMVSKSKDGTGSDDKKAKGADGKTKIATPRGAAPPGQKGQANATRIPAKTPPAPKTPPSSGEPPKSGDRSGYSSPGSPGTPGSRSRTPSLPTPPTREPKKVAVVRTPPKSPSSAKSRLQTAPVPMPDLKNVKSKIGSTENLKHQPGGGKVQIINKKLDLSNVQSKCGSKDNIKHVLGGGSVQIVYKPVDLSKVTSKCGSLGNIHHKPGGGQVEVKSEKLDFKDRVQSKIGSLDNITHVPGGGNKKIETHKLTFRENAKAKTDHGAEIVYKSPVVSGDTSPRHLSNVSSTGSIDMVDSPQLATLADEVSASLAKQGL

B1: IPN002 (antibody, V domains shown)
VH: EVHLVESGGALVKPGGSLKLSCAASGFSFSKYGMSWVRQTPDKRLEWVATISSSGSRTYYPDSVKGQFTISRDNAKNTLYLQMSSLKSEDTAMYYCSISWDGAMDYWGQGTSVTVSS
VL: DVLMTQTPLSLPVSLGDQASISCKSSQSIVHSNGNTYLEWYLQKPGQSPKLLVYKVSNRFSGVPDRFSGSGSGTDFTLKISRVEAEDLGTYYCFQGSLVPWAFGGGTKLEIK
Turning to B1, the reduction in levels of the Free Tau (of IPN002) signal in CSF stood at 96%.
